From paper PMC3412365 (The Journal of neuroscience : the official journal of the …, 2011)

T1: RGS9-2 (mouse (endogenous in striatum), UniProt O54828-1 1-675)
T1 sequence (looked up): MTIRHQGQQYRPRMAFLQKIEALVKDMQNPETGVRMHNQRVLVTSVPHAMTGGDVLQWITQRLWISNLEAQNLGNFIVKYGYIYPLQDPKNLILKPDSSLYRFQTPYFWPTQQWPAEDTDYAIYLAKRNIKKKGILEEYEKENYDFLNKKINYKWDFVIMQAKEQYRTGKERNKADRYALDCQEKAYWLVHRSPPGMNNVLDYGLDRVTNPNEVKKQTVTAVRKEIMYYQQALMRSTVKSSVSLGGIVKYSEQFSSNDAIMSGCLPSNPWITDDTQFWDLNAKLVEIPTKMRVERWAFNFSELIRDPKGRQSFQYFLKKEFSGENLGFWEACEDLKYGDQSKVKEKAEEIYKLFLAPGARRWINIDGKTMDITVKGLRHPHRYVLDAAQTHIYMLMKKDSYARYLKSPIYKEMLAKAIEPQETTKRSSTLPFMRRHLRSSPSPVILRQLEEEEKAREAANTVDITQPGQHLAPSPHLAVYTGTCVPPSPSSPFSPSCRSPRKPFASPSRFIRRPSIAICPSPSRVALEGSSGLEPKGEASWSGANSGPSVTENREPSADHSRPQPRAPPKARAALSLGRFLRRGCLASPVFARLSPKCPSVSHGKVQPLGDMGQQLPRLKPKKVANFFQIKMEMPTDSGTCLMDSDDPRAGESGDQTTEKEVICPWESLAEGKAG


Biological target: T1, RGS9-2
Test: co-IP

co-IP signal after chronic morphine, % compared with vehicle-treated mice [%] | Binder
171 | Gβ5 (natural protein, mouse (endogenous in striatum), UniProt P62881-2 1-353, looked up) MATDGLHENETLASLKSEAESLKGKLEEERAKLHDVELHQVAERVEALGQFVMKTRRTLKGHGNKVLCMDWCKDKRRIVSSSQDGKVIVWDSFTTNKEHAVTMPCTWVMACAYAPSGCAIACGGLDNKCSVYPLTFDKNENMAAKKKSVAMHTNYLSACSFTNSDMQILTASGDGTCALWDVESGQLLQSFHGHGADVLCLDLAPSETGNTFVSGGCDKKAMVWDMRSGQCVQAFETHESDVNSVRYYPSGDAFASGSDDATCRLYDLRADREVAIYSKESIIFGASSVDFSLSGRLLFAGYNDYTINVWDVLKGSRVSILFGHENRVSTLRVSPDGTAFCSGSWDHTLRVWA
216 | Gαq (natural protein, mouse (endogenous in striatum), UniProt P21279 1-359, looked up) MTLESIMACCLSEEAKEARRINDEIERQLRRDKRDARRELKLLLLGTGESGKSTFIKQMRIIHGSGYSDEDKRGFTKLVYQNIFTAMQAMIRAMDTLKIPYKYEHNKAHAQLVREVDVEKVSAFENPYVDAIKSLWNDPGIQECYDRRREYQLSDSTKYYLNDLDRVADPSYLPTQQDVLRVRVPTTGIIEYPFDLQSVIFRMVDVGGQRSERRKWIHCFENVTSIMFLVALSEYDQVLVESDNENRMEESKALFRTIITYPWFQNSSVILFLNKKDLLEEKIMYSHLVDYFPEYDGPQRDAQAAREFILKMFVDLNPDSDKIIYSHFTCATDTENIRFVFAAVKDTILQLNLKEYNLV
